According to patent US11111484B2, “Streptococcus bacteriophage lysins for detection and treatment of gram positive bacteria” (priority 2011, dated 2021):

B1: PlySs2: Streptococcus suis prophage lysin, SEQ ID NO:3; N-terminal CHAP domain and C-terminal SH3-type 5 domain (protein, listed as Streptococcus suis)
chain: MTTVNEALNNVRAQVGSGVSVGNGECYALASWYERMISPDATVGLGAGVGWVSGAIGDTISAKNIGSSYNWQANGWTVSTSGPFKAGQIVTLGATPGNPYGHVVIVEAVDGDRLTILEQNYGGKRYPVRNYYSAASYRQQVVHYITPPGTVAQSAPNLAGSRSYRETGTMTVTVDALNVRRAPNTSGEIVAVYKRGESFDYDTVIIDVNGYVWVSYIGGSGKRNYVATGATKDGKRFGNAWGTFK
B2: ΔPlySs1: truncated PlySs1 lysin, SEQ ID NO:2, N-terminal 254 amino acids: only N-terminal enzymatic and central binding domains (protein, listed as Streptococcus suis)
chain: MTINLETSIRWMSDRVGKVSYSMDYRNGPNSYDCSSAVYYALMAGGAISAGWAVNTEYMHDWLIRNGYVLVAENKPFNAQRHDVCILGKRGYSSGAGGHVVIFVDNVNVIHCNYARNGISIDNYNQVHRGMYYYLYRPANQPSISNKSLDQLVKETLAGVHGNGDTRKASLGSQYEAVMAVINGKASASEKSDEELAREVLAGKHGAGEDRKRSLGPRYEPVQAKVNELLKAKEKPSETAKNEPQTVQFKEDGDL

How the values were obtained:
[1] = PlySs2 solubility / concentrated solution; assay type: physicochemical; settings: ≈20 mg/ml solution
Method: The aforementioned preparation led to a highly pure lysin preparation in just two chromatographic steps (FIG. 6). With a predicted pi of 9.01, PlySs2 flowed directly through the DEAE column at pH=7.4 leaving the bulk of the contaminant proteins stuck to the DEAE column. PlySs2 eluted cleanly in the shoulder of the flow through and at 17 mM NaCl, being purified from proteins that rapidly flowed through the CM resin. This preparation yielded ≈60 mg of protein per liter of E. coli culture at ≈1.5 mg/ml with >99% purity. The yield increased to ≈150 mg per liter of E. coli culture at ≈2.0 mg/ml with >90% purity when the CM column step was forwent. If necessary, the latter product was: dialyzed (into 5 mM PB, 15 mM NaCl); lyophilized; reconstituted (at 10% of the original volume); centrifuged; and filter-sterilized (to remove any insoluble material). […] PlySs2 can be produced more efficiently, and at a higher concentration, than many published lysins (Daniel A et al (2010) Antimicrob Agents Chemother 54(4):1602-1612; Wang, Y. et al (2009) Curr Microbiol 58(6):609-615; Nelson, D et al (2006) Proc Natl Acad Sci USA 103(28):10765-10770).
PlySs2 is more tractable and stable than previously developed lysins. PlySs2 preparation is straightforward, yielding large quantities in few steps. In addition, a highly soluble lysin is essential, because it allows for ready use at high concentrations. […]

S. pyogenes strains = assay: PlySs2 lytic activity against species and strains (FIG. 25); assay type: cell-based, Streptococcus pyogenes; settings: S. pyogenes serotypes M1, M3, M4, M6, M18, M49, variant without M protein
Method: FIG. 25 provides PlySs2 activity against different species and strains. Log-phase cultures were exposed to 32 μg/ml PlySs2 for 60 minutes in phosphate buffer. The final OD600 of the treated samples were divided by the final OD600 of the untreated samples to generate the normalized values above. Multiple Staphylococci (including, but not limited to: MRSA, MSSA, and VISA), Streptococci, Listeria, Enterococci, and Bacilli were tested for susceptibility to PlySs2 activity. Escherichia and Pseudomonas were tested as Gram-negative controls.

MRSA = MRSA wound infection model in rats; settings: dorsal wound; 500 μL + 100 μL PlySs2 at 10 mg/mL; after 10 days
M. luteus 4698 = assay: ΔPlySs1 OD600 lysis, 1 hr, optimal buffering conditions; assay type: cell-based
S. equi 9528 = assay: as above; assay type: cell-based, Streptococcus equi

| Molecule | activity after lyophilization and reconstitution to concentrated solution [1] | lytic activity (S. pyogenes strains) | drop of CFU's of MRSA compared with control rats (MRSA) | lysis value after 1 hr (treated/untreated OD600 ratio) (M. luteus 4698; 6.5 μg/ml) | lysis value after 1 hr (treated/untreated OD600 ratio) (M. luteus 4698; 13 μg/ml) | lysis value after 1 hr (treated/untreated OD600 ratio) (M. luteus 4698; 30 μg/ml) | lysis value after 1 hr (treated/untreated OD600 ratio) (M. luteus 4698; 65 μg/ml) | lysis value after 1 hr (treated/untreated OD600 ratio) (M. luteus 4698; 130 μg/ml) | lysis value after 1 hr (treated/untreated OD600 ratio) (S. equi 9528; 6.5 μg/ml) | lysis value after 1 hr (treated/untreated OD600 ratio) (S. equi 9528; 13 μg/ml) | lysis value after 1 hr (treated/untreated OD600 ratio) (S. equi 9528; 30 μg/ml) | lysis value after 1 hr (treated/untreated OD600 ratio) (S. equi 9528; 65 μg/ml) | lysis value after 1 hr (treated/untreated OD600 ratio) (S. equi 9528; 130 μg/ml) |
| --- | --- | --- | --- | --- | --- | --- | --- | --- | --- | --- | --- | --- | --- |
| B1 | retained the concentration-adjusted activity | had activity against all strains of S. pyogenes | 3-4 logs | – | – | – | – | – | – | – | – | – | – |
| B2 | – | – | – | 0.84 | 0.90 | 0.83 | 0.87 | 0.82 | 0.66 | 0.45 | 0.25 | 0.19 | 0.16 |
